Measurements taken from the RNAGym collection of RNA variant scans (doi:10.7554/elife.80360).

B1: Hairpin Ribozyme (parent)
chain: GUCCUCUUUCACGUGCGCGUGAAAGAGAGAAGUGAACCAGAGAAACACACGUUGUGGUAUAUUACCUGGUA

Variants of: B1
Assay: self-cleavage, relative activity (ratio to wild type); higher = more cleavage; co-transcriptional

First: GUCCUCUUUCACGUGCGCGUGAAAGAGAGAAUUGAACCAGAGAAACACACGUUGUGGUAUAUUACCUAGUA [G32U G68A]
Second: GUCCUCUUUCACGUGCGCGUGAAAGAGAGAAUUGAACCAGAGAAACACACGUUGUGGUAUAUUACCUUGUA [G32U G68U]
The self-cleavage of the first is lower: 0.0877 for the first, 0.114 for the second.

First: GUCCUCUUUCACGUGCGCGUGAAAGAGAGAAGCGAACCAGAGAAACCCACGUUGUGGUAUAUUACCUGGUA [U33C A47C]
Second: GUCCUCUUUCACGUGCGCGUGAAAGAGAGAAGCGAACCAGAGAAACACACGUUGUGGUAUGUUACCUGGUA [U33C A61G]
The self-cleavage of the first is higher: 0.106 for the first, 0.0977 for the second.

Compared with GUCCUCUUUCACGUGCGCGUGAAAGAGAGAAUUGAACCAGAGAAACACACGUUGUGGAAUAUUACCUGGUA [G32U U58A], GUCCUCUUUCACGUGCGCGUGAAAGAGAGAAGAGAACCAGAGAAACACACGUUGUGGUAUAUUACCUUGUA [U33A G68U] is higher in self-cleavage: 0.0967 for the first, 0.162 for the second.

Going from GUCCUCUUUCACGUGCGCGUGAAAGAGAGAAUUGAACCAGAGAAACACACGUUGGGGUAUAUUACCUGGUA [G32U U55G] to GUCCUCUUUCACGUGCGCGUGAAAGAGAGAAUUGAACCAGAGAAACACACGUUGCGGUAUAUUACCUGGUA [G32U U55C], the self-cleavage rises from 0.132 to 0.165.

First: GUCCUCUUUCACGUGCGCGUGAAAGAGAGAAUUGAACCAGAGAAACACACGUUGUGUUAUAUUACCUGGUA [G32U G57U]
Second: GUCCUCUUUCACGUGCGCGUGAAAGAGAGAAGCGAACCAGGGAAACACACGUUGUGGUAUAUUACCUGGUA [U33C A41G]
The self-cleavage of the first is lower: 0.162 for the first, 0.193 for the second.

Going from GUCCUCUUUCACGUGCGCGUGAAAGAGAGAAGAGAACCAGAGAAACACACGUUGUGGUAUAUUACCUGCUA [U33A G69C] to GUCCUCUUUCACGUGCGCGUGAAAGAGAGAAGAGAACCAGAGAAACACACGUUGUGGUAUAUUACCUGAUA [U33A G69A], the self-cleavage falls from 0.124 to 0.0983.

First: GUCCUCUUUCACGUGCGCGUGAAAGAGAGAAGAGAACCAGAGAAACACACGUUGUGGUAUAUUACCUGUUA [U33A G69U]
Second: GUCCUCUUUCACGUGCGCGUGAAAGAGAGAAGAGAACCAGUGAAACACACGUUGUGGUAUAUUACCUGGUA [U33A A41U]
The self-cleavage of the first is higher: 0.134 for the first, 0.111 for the second.

First: GUCCUCUUUCACGUGCGCGUGAAAGAGAGAAGCGAACCAGAGAAUCACACGUUGUGGUAUAUUACCUGGUA [U33C A45U]
Second: GUCCUCUUUCACGUGCGCGUGAAAGAGAGAAGCGAACCAGAGAACCACACGUUGUGGUAUAUUACCUGGUA [U33C A45C]
The self-cleavage of the first is higher: 0.15 for the first, 0.124 for the second.

First: GUCCUCUUUCACGUGCGCGUGAAAGAGAGAAGCGAACCAGAGAAACAAACGUUGUGGUAUAUUACCUGGUA [U33C C48A]
Second: GUCCUCUUUCACGUGCGCGUGAAAGAGAGAAGCGAACCAGAGAAACAGACGUUGUGGUAUAUUACCUGGUA [U33C C48G]
The self-cleavage of the first is lower: 0.0642 for the first, 0.227 for the second.

First: GUCCUCUUUCACGUGCGCGUGAAAGAGAGAAGAGAACCAGAGAAACACACGUUGUGGUAUAUUACCUGGCA [U33A U70C]
Second: GUCCUCUUUCACGUGCGCGUGAAAGAGAGAAGAGAACCAGAGAAACACACGUUGUGGUAUAUUACCUGGGA [U33A U70G]
The self-cleavage of the first is lower: 0.119 for the first, 0.253 for the second.

Compared with GUCCUCUUUCACGUGCGCGUGAAAGAGAGAAGAGAACCAGAGAAACACGCGUUGUGGUAUAUUACCUGGUA [U33A A49G], GUCCUCUUUCACGUGCGCGUGAAAGAGAGAAGCGAACCAGAGAAACACACGUUGUGGUAUAUUACCUGGUG [U33C A71G] is higher in self-cleavage: 0.0427 for the first, 0.241 for the second.

Compared with GUCCUCUUUCACGUGCGCGUGAAAGAGAGAAGCGAACCAGAGAAACACACGUUGUGGUAUAUUACCUGGUC [U33C A71C], GUCCUCUUUCACGUGCGCGUGAAAGAGAGAAGAGAACCAGAGAAACACACGUUGUGGUAUAUUACAUGGUA [U33A C66A] is lower in self-cleavage: 0.63 for the first, 0.0709 for the second.

First: GUCCUCUUUCACGUGCGCGUGAAAGAGAGAAGAGAACCAGAGAAACACACGUUGUGGUAUAUUACUUGGUA [U33A C66U]
Second: GUCCUCUUUCACGUGCGCGUGAAAGAGAGAAUUGAACCAGAGAAACACACGUUGUGGUAUAAUACCUGGUA [G32U U62A]
The self-cleavage of the first is higher: 0.151 for the first, 0.052 for the second.

First: GUCCUCUUUCACGUGCGCGUGAAAGAGAGAAUUGAACCAGAGAAACACACGUUGUGGUAUACUACCUGGUA [G32U U62C]
Second: GUCCUCUUUCACGUGCGCGUGAAAGAGAGAAUUGAACCAGAGAAACACACGAUGUGGUAUAUUACCUGGUA [G32U U52A]
The self-cleavage of the first is lower: 0.0761 for the first, 0.155 for the second.

Going from GUCCUCUUUCACGUGCGCGUGAAAGAGAGAAUUGAACCAGAGAAACACACGGUGUGGUAUAUUACCUGGUA [G32U U52G] to GUCCUCUUUCACGUGCGCGUGAAAGAGAGAAGAGAACCUGAGAAACACACGUUGUGGUAUAUUACCUGGUA [U33A A39U], the self-cleavage falls from 0.0995 to 0.0937.

Compared with GUCCUCUUUCACGUGCGCGUGAAAGAGAGAAGAGAACCGGAGAAACACACGUUGUGGUAUAUUACCUGGUA [U33A A39G], GUCCUCUUUCACGUGCGCGUGAAAGAGAGAAGAGAACCAGAGAAACACACGUUGCGGUAUAUUACCUGGUA [U33A U55C] is higher in self-cleavage: 0.122 for the first, 0.149 for the second.

Going from GUCCUCUUUCACGUGCGCGUGAAAGAGAGAAGAGAACCAGAGAAAUACACGUUGUGGUAUAUUACCUGGUA [U33A C46U] to GUCCUCUUUCACGUGCGCGUGAAAGAGAGAAGCGAUCCAGAGAAACACACGUUGUGGUAUAUUACCUGGUA [U33C A36U], the self-cleavage rises from 0.0735 to 0.0847.

Compared with GUCCUCUUUCACGUGCGCGUGAAAGAGAGAAGCGACCCAGAGAAACACACGUUGUGGUAUAUUACCUGGUA [U33C A36C], GUCCUCUUUCACGUGCGCGUGAAAGAGAGAAGAGAACCAGAGAAACAAACGUUGUGGUAUAUUACCUGGUA [U33A C48A] is lower in self-cleavage: 0.199 for the first, 0.0899 for the second.

First: GUCCUCUUUCACGUGCGCGUGAAAGAGAGAAGAGAACCAGAGAAGCACACGUUGUGGUAUAUUACCUGGUA [U33A A45G]
Second: GUCCUCUUUCACGUGCGCGUGAAAGAGAGAAGAGAACCAGAGAACCACACGUUGUGGUAUAUUACCUGGUA [U33A A45C]
The self-cleavage of the first is lower: 0.127 for the first, 0.231 for the second.
